Test results reported in article PMC4415690.

Target: TesS thioesterase (SP1408) of Streptococcus pneumoniae, C-terminal FLAG tag (Streptococcus pneumoniae)
Assay: SEC

stoichiometry N: 2
Substance: TesS thioesterase (SP1408) of Streptococcus pneumoniae, C-terminal FLAG tag (enzyme)
